Measured values reported in patent US20090181057A1 (BOARD OF TRUSTEES OF THE UNIVERSITY OF ILLINOIS, published 2009).

Assays:
[1] = target: T1, von Willebrand factor (vWF), purified human (human, UniProt P04275 764-2813); test: flow cytometry of CHO cells with purified VWF and ristocetin, anti-VWF monoclonal antibody
T1 construct: Purified vWF in the flow cytometry and capillary adhesion assays; the vWF of the donor's plasma in the assays with platelet-rich plasma; also called purified vWF
Method: Flow Cytometric Analysis of VWF Binding to GPIb-IX-expressing Cells—CHO cells expressing wild type (1b9) and mutant GPIb-IX were grown to confluence to synchronize cell growth. The cells were detached using 0.5 mM EDTA in PBS, pH 7.4. Seventy-five percent of the original volume was then replated in Dulbecco's modified Eagle's medium (DMEM) growth media and cultured for 18 h. For VWF binding assays, cells were detached using 0.5 mM EDTA-PBS, pH 7.4, resuspended to a concentration of 2.25×10⁶ cells/ml and incubated in modified Tyrode's buffer (2.5 mM Hepes, 12.1 mM NaHCO₃, 2.36 mM KCl, 0.136 M NaCl, 1 mM CaCl₂, 1 mM MgCl₂, 0.1% D-glucose, 1% BSA, pH 7.4) for 30 min at 4° C. […] After washing once with Tyrode's buffer, cells were further incubated with 10 μg/ml FITC-labeled SZ-29 (a monoclonal antibody against vWF) in the dark at 22° C. for 30 min and then analyzed by flow cytometry. […]
The cells were then analyzed by flow cytometry without washing. […]
To determine the roles of the above described two phosphoserine residues in regulating ligand binding function of GPIb-IX, CHO cell lines bearing wild type and the mutants of GPIb-IX were incubated with purified VWF in the presence of ristocetin (a VWF modulator that induces VWF binding to GPIb-IX). Binding of VWF was determined by flow cytometry using an anti-VWF monoclonal antibody. […]

[2] = target: maltose-binding protein (MBP), conjugated to control beads (UniProt P0AEX9 27-392 = MBP); test: bead pull-down from platelet lysate, anti-GPIbα immunoblot
Method: 14-3-3 binding to GPIb-IX. Binding of GPIb-IX to 14-3-3-conjugated beads were performed as previously described (Du et al., J. Biol. Chem., 271:7362-7367 (1996)). Briefly, 14-3-3-conjugated Sepharose 4B beads and maltose-binding protein (MBP)-conjugated control beads were preincubated with various concentrations of synthetic peptides at 4° C. for 1 h, and then with platelet lysates for an additional 1 h. The beads were washed three times. Bound GPIb-IX was detected by Western blot with a monoclonal antibody against GPIbα, WM23.
To examine if the above peptides interfere with 14-3-3 interaction with GPIb-IX, platelet lysates were incubated with beads conjugated with recombinant 14-3-3-maltose-binding protein (MBP) fusion protein in the absence or presence of MPαC or control peptides. GPIb-IX from platelet lysates specifically bound to 14-3-3 beads but not the control MBP-conjugated beads (FIG. 1B).

B1: recombinant wild type GPIb-IX expressed in CHO cells (1b9) (receptor)
chain 1: HPICEVSKVASHLEVNCDKRNLTALPPDLPKDTTILHLSENLLYTFSLATLMPYTRLTQLNLDRCELTKLQVDGTLPVLGTLDLSHNQLQSLPLLGQTLPALTVLDVSFNRLTSLPLGALRGLGELQELYLKGNELKTLPPGLLTPTPKLEKLSLANNNLTELPAGLLNGLENLDTLLLQENSLYTIPKGFFGSHLLPFAFLHGNPWLCNCEILYFRRWLQDNAENVYVWKQGVDVKAMTSNVASVQCDNSDKFPVYKYPGKGCPTLGDEGDTDLYDYYPEEDTEGDKVRATRTVVKFPTKAHTTPWGLFYSWSTASLDSQMPSSLHPTQESTKEQTTFPPRWTPNFTLHMESITFSKTPKSTTEPTPSPTTSEPVPEPAPNMTTLEPTPSPTTPEPTSEPAPSPTTPEPTPIPTIATSPTILVSATSLITPKSTFLTTTKPVSLLESTKKTIPELDQPPKLRGVLQGHLESSRNDPFLHPDFCCLLPLGFYVLGLFWLLFASVVLILLLSWVGHVKPQALDSGQGAALTTATQTTHLELQRGRQVTVPRAWLLFLRGSLPTFRSSLFLWVRPNGRVGPLVAGRRPSALSQGRGQDLLSTVSIRYSGHSL
chain 2: CPAPCSCAGTLVDCGRRGLTWASLPTAFPVDTTELVLTGNNLTALPPGLLDALPALRTAHLGANPWRCDCRLVPLRAWLAGRPERAPYRDLRCVAPPALRGRLLPYLAEDELRAACAPGPLCWGALAAQLALLGLGLLHALLLVLLLCRLRRLRARARARAAARLSLTDPLVAERAGTDES
chain 3: TKDCPSPCTCRALETMGLWVDCRGHGLTALPALPARTRHLLLANNSLQSVPPGAFDHLPQLQTLDVTQNPWHCDCSLTYLRLWLEDRTPEALLQVRCASPSLAAHGPLGRLTGYQLGSCGWQLQASWVRPGVLWDVALVAVAALGLALLAGLLCATTEALD
modifications: Ser166 phosphorylated in CHO cells, as the filing says; phosphoserine 609, as the filing calls it
notes: whole, on cells; On intact CHO cells in flow cytometry and adhesion; in Triton X-100 lysate in the co-immunoprecipitation; No GPV
B1: binds [1].

B2: GPIb-IX with wild type GPIbβ and GPIX and GPIbα S609A, expressed in CHO cells (S609A) (receptor)
chain 1: HPICEVSKVASHLEVNCDKRNLTALPPDLPKDTTILHLSENLLYTFSLATLMPYTRLTQLNLDRCELTKLQVDGTLPVLGTLDLSHNQLQSLPLLGQTLPALTVLDVSFNRLTSLPLGALRGLGELQELYLKGNELKTLPPGLLTPTPKLEKLSLANNNLTELPAGLLNGLENLDTLLLQENSLYTIPKGFFGSHLLPFAFLHGNPWLCNCEILYFRRWLQDNAENVYVWKQGVDVKAMTSNVASVQCDNSDKFPVYKYPGKGCPTLGDEGDTDLYDYYPEEDTEGDKVRATRTVVKFPTKAHTTPWGLFYSWSTASLDSQMPSSLHPTQESTKEQTTFPPRWTPNFTLHMESITFSKTPKSTTEPTPSPTTSEPVPEPAPNMTTLEPTPSPTTPEPTSEPAPSPTTPEPTPIPTIATSPTILVSATSLITPKSTFLTTTKPVSLLESTKKTIPELDQPPKLRGVLQGHLESSRNDPFLHPDFCCLLPLGFYVLGLFWLLFASVVLILLLSWVGHVKPQALDSGQGAALTTATQTTHLELQRGRQVTVPRAWLLFLRGSLPTFRSSLFLWVRPNGRVGPLVAGRRPSALSQGRGQDLLSTVSIRYSGHAL
chain 2: CPAPCSCAGTLVDCGRRGLTWASLPTAFPVDTTELVLTGNNLTALPPGLLDALPALRTAHLGANPWRCDCRLVPLRAWLAGRPERAPYRDLRCVAPPALRGRLLPYLAEDELRAACAPGPLCWGALAAQLALLGLGLLHALLLVLLLCRLRRLRARARARAAARLSLTDPLVAERAGTDES
chain 3: TKDCPSPCTCRALETMGLWVDCRGHGLTALPALPARTRHLLLANNSLQSVPPGAFDHLPQLQTLDVTQNPWHCDCSLTYLRLWLEDRTPEALLQVRCASPSLAAHGPLGRLTGYQLGSCGWQLQASWVRPGVLWDVALVAVAALGLALLAGLLCATTEALD
notes: whole, on cells; also called S609A mutant
B2: binds [1].

B3: glycoprotein (GP) Ib-IX-V complex (GPIb-IX) of human platelets (receptor)
chain 1: HPICEVSKVASHLEVNCDKRNLTALPPDLPKDTTILHLSENLLYTFSLATLMPYTRLTQLNLDRCELTKLQVDGTLPVLGTLDLSHNQLQSLPLLGQTLPALTVLDVSFNRLTSLPLGALRGLGELQELYLKGNELKTLPPGLLTPTPKLEKLSLANNNLTELPAGLLNGLENLDTLLLQENSLYTIPKGFFGSHLLPFAFLHGNPWLCNCEILYFRRWLQDNAENVYVWKQGVDVKAMTSNVASVQCDNSDKFPVYKYPGKGCPTLGDEGDTDLYDYYPEEDTEGDKVRATRTVVKFPTKAHTTPWGLFYSWSTASLDSQMPSSLHPTQESTKEQTTFPPRWTPNFTLHMESITFSKTPKSTTEPTPSPTTSEPVPEPAPNMTTLEPTPSPTTPEPTSEPAPSPTTPEPTPIPTIATSPTILVSATSLITPKSTFLTTTKPVSLLESTKKTIPELDQPPKLRGVLQGHLESSRNDPFLHPDFCCLLPLGFYVLGLFWLLFASVVLILLLSWVGHVKPQALDSGQGAALTTATQTTHLELQRGRQVTVPRAWLLFLRGSLPTFRSSLFLWVRPNGRVGPLVAGRRPSALSQGRGQDLLSTVSIRYSGHSL
chain 2: CPAPCSCAGTLVDCGRRGLTWASLPTAFPVDTTELVLTGNNLTALPPGLLDALPALRTAHLGANPWRCDCRLVPLRAWLAGRPERAPYRDLRCVAPPALRGRLLPYLAEDELRAACAPGPLCWGALAAQLALLGLGLLHALLLVLLLCRLRRLRARARARAAARLSLTDPLVAERAGTDES
chain 3: TKDCPSPCTCRALETMGLWVDCRGHGLTALPALPARTRHLLLANNSLQSVPPGAFDHLPQLQTLDVTQNPWHCDCSLTYLRLWLEDRTPEALLQVRCASPSLAAHGPLGRLTGYQLGSCGWQLQASWVRPGVLWDVALVAVAALGLALLAGLLCATTEALD
chain 4: QPFPCPPACKCVFRDAAQCSGGDVARISALGLPTNLTHILLFGMGRGVLQSQSFSGMTVLQRLMISDSHISAVAPGTFSDLIKLKTLRLSRNKITHLPGALLDKMVLLEQLFLDHNALRGIDQNMFQKLVNLQELALNQNQLDFLPASLFTNLENLKLLDLSGNNLTHLPKGLLGAQAKLERLLLHSNRLVSLDSGLLNSLGALTELQFHRNHIRSIAPGAFDRLPNLSSLTLSRNHLAFLPSALFLHSHNLTLLTLFENPLAELPGVLFGEMGGLQELWLNRTQLRTLPAAAFRNLSRLRYLGVTLSPRLSALPQGAFQGLGELQVLALHSNGLTALPDGLLRGLGKLRQVSLRRNRLRALPRALFRNLSSLESVQLDHNQLETLPGDVFGALPRLTEVLLGHNSWRCDCGLGPFLGWLRQHLGLVGGEEPPRCAGPGAHAGLPLWALPGGDAECPGPRGPPPRPAADSSSEAPVHPALAPNSSEPWVWAQPVTTGKGQDHSPFWGFYFLLLAVQAMITVIIVFAMIKIGQLFRKLIRERALG
modifications: phosphoserine at Ser609 (the filing says Ser609 is constitutively phosphorylated in resting platelets)
notes: whole, on cells; Native complex of platelets from healthy donors; solubilised in platelet lysate in the 14-3-3 bead pull-down; also called glycoprotein Ib-IX; platelet VWF receptor
B3: no binding [2].
